Experimental findings from patent US20110045003A1 (SYNOVEX, published 2011) are described below.

Test [1] deals with T1, BSA coupled 37-mer Cad-11 peptide encompassing the Cad-11 immunogen (UniProt P55287 54-90, limits assumed, linked to BSA).
T1 construct: domain: 37-mer peptide encompassing the Cad-11 immunogen; also called Cad-11 antigen; Cad-11 peptide immunogen
T1 peptide (looked up): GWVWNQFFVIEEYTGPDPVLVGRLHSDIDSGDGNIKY
The test can be described thus: ELISA, BSA-coupled 37-mer cadherin peptide coated at 500 ng/ml, antibody titrated, A450. The protocol:
Reactibind plates (ThermoScientific) were coated with 500 ng/ml of the BSA coupled cadherin 37-mer peptide (NE peptide) corresponding to Cadherins-7, -8, -9, -11, -18, -20, and -24 in 0.05% Tween (EMD, product code 9480) in PBS (pH 7.2) (Gibco(Invitrogen), #20012) at 100 μl volume/well for overnight at 4° C. The peptide containing solution was removed from the well and the plate blocked with a 2% bovine serum albumin (BSA) in PBS, 200 μl volume/well, for 2 h at 22° C. The plate was then washed twice with 200 μl/well of PBS-Tween 0.05% at 22° C. and blotted dry. A dilution series from 5 μg/ml to 8 ng/ml in a volume of 100 μl/well of each the humanized anti-Cad-11 antibodies were incubated in the peptide coated wells and incubated at 22° C. for 1 hr. Antibody solution was removed from the wells and the plate washed twice with 200 μl/well of 0.05% Tween-PBS at 22° C. and blotted dry. The goat-anti mouse IgG (Pierce # 31432) was added to each well to plate at a 1:1000 dilution, 100 μl/well and incubate at 22° C. for 30 min. The secondary antibody solution was removed and the plate washed twice with 200 μl/well of 0.05% Tween-PBS at 22° C. and blotted dry. The reaction was developed by adding 100 μl/well tetramethylbenzidine (TMB) reagent IgG (Pierce # 34022, 1 step Turbo TMB-ELISA) to plate and developed at 22° C. for 5 min.

Test [2] concerns the target T2, Cad-24 EC1 domain peptide (region overlapping G1-G33 of Cad-11 EC1) (UniProt Q86UP0 45-77, conjugated to biotin).
T2 construct: domain: first 33 amino acids of the EC1 domain
T2 peptide (looked up): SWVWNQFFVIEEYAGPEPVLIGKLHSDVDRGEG
The test can be described thus: ELISA on biotinylated EC1 domain peptide captured on a Neutravidin plate, goat anti-mouse IgG, TMB, A450. The protocol:
(§1) The specificity of H1M1 and H14 anti-Cad-11 antibodies was tested further using an ELISA against the first 33 amino acids of the EC1 domains of Cad-11, Cad-7, Cad-8, Cad-20, Cad-24, Cad-9, Cad-18, and MN-Cad. Peptides corresponding to the region of Cad-7, Cad-8, Cad-20, Cad-24, Cad-9, Cad-18, MN-Cad that overlapped with the G1-G33 region of the Cad-11 EC1 domain were synthesized and conjugated to biotin. 100 μl of a 30 ng/ml solution of each of these peptides in PBS-Tween (0.05%) were incubated in each well of a 96-well Netravidin plate for 2-3 hrs at 4° C. and then washed twice with PBS-Tween (0.05%). Various concentrations of the anti-Cad-11 antibody were incubated in each well for 1 hr at 22° C. and then washed twice with PBS-Tween (0.05%). 100 μl of a 1/1000 dilution of a goat anti-mouse IgG secondary antibody were added to each well, incubated for 30 min at 22° C., and then washed twice with PBS-Tween (0.05%). 100 μl/well of room temperature TMB (3,3′,5,5′-tetramethylbenzidine) reagent was added to each well and color was allowed to develop for 5 min at 22° C.

For test [3], the target named is T3, Cad-20 EC1 domain peptide (region overlapping G1-G33 of Cad-11 EC1) (UniProt Q9HBT6 60-92, conjugated to biotin).
T3 construct: domain: first 33 amino acids of the EC1 domain
T3 peptide (looked up): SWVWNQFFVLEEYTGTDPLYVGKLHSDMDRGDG
Described as above. The protocol: as §1

Test [4] concerns the target T4, Cad-9 EC1 domain peptide (region overlapping G1-G33 of Cad-11 EC1) (UniProt Q9ULB4 54-86, conjugated to biotin).
T4 construct: domain: first 33 amino acids of the EC1 domain
T4 peptide (looked up): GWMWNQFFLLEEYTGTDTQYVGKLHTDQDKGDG
The test is described as above. The protocol:
as §1

In test [5] the target is T5, Cad-18 EC1 domain peptide (region overlapping G1-G33 of Cad-11 EC1) (UniProt Q13634 54-86, conjugated to biotin).
T5 construct: domain: first 33 amino acids of the EC1 domain
T5 peptide (looked up): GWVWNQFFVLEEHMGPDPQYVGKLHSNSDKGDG
The test is described as above. The protocol:
as §1

Test [6] deals with T6, Cad-7 EC1 domain peptide (region overlapping G1-G33 of Cad-11 EC1) (UniProt Q9ULB5 48-80, conjugated to biotin).
T6 construct: domain: first 33 amino acids of the EC1 domain
T6 peptide (looked up): T3 peptide (looked up) with T14M, T16S, M28V, R30K
Described as above. The protocol:
as §1

Numbering of substitutions follows the chain as printed. Names may count otherwise.

B1: humanized anti-Cad-11 EC1 antibody SDP051 (Vκ1/VH5) (antibody, IgG4, V domains shown)
VH: EVQLVQSGAEVKKPGASVKVSCKASGYSFTGYFMNWVRQAPGQGLEWIGRINPYTGDTFYNQKFKGRVTITVDKSTSTAYMELSSLRSEDTAVYYCGRLGSRYWYFDVWGQGTTVTVSS
VL: DVLMTQTPLSSPVTLGQPASISCRSSQSIIHSNGNTYLEWYLQKPGQSPQLLIYKVSNRFSGVPDRFTGSGSGTDFTLKISRVEAEDVGVYYCFQGSHVPWTFGQGTKLEIK
notes: humanized IgG4 (S241P), kappa
On to B1, for which the concentration for a half-maximal effect (EC50 (read off the curve)) in test [1] was about 40 ng/mL.

B2: murine H1M1 monoclonal anti-Cad-11 EC1 antibody (hybridoma H1M1, ATCC PTA-9699) (antibody, V domains shown)
VH: EVQLQQSGPELVKPGASVKISCKASGYSFTGYFMNWVKQSHGKSLEWIGRINPYTGDTFYNQKFKGKATLTVDKSSSTAHMELLSLSSEDSAVYYCGRLGSRYWYFDVWGAGTTVTVSS
VL: B1 VL with S11L, T14S, Q17D, P18Q, Q50K, V88L, Q105G
modifications: Biotinylated when used as the labelled competitor in Example 14; the letters are unchanged.
notes: murine antibody raised against Peptide 4; also called SYN0012; SYN0012/H1M1
With B2, the binding result in test [2], in test [3], in test [4], in test [5] and in test [6] was “no binding” in each case.
